B1: KY704044 (VHH)
VHH: EVQLVESGGGLVQAGGSLRLSCAASGRTSSIYRMGWFRQAPGKERDIVASIHWSGGRWFYADFVKGRFTISRDNAENTVYLQMSSLKPEDTAVYYCAARTPGTLTYDYWGQGTLVTVSS
B2: KY704062 (VHH)
VHH: EVQLVESGGGLVQAGGSLRLSCAASGLAFSSYAAGWFRQAPGKEREFLAVISRGGGTTYYANFVKGRFSISRDNAENTVYLQMNSLKPEDTAVYYCGADTYFGRLVSDPITSDYWGQGTLVTVSS
B3: KY704053 (VHH)
VHH: EVQLVESGGGLVQAGDSLRLSCAASGRTFSIYSMGWFRQATGKEREFVAAIRWSGTRTYYADSVKGRFTISGDIAKNTVYLQMNNLKPEDTAVYSCAAGGSRGYVAAPDRWDYWGQGTLVTVSS
B4: KY704061 (VHH)
VHH: EVQLVESGGGLVQAGGSLRLSCAASGRTFSNDAMGWFRQAPGKERAFVGVINWNGVTTRYTDSVEGRFTISRDNAKNTVYLQMNSLKPEDTAVYFCAAGGGPVAVSSGRSAYWGQGTLVTVSS
B5: KY704058 (VHH)
VHH: EVQLVESGGGLVQAGDSLRLSCAASGGTLNGYAMAWFRQAPGKERDVVATINWSGSWKYYADSVKGRFTISRDNAKGTVYLQMNSLKPEDTAVYRCAARRGGGNYYTRAVDFDYWGQGTLVTVSS
B6: KY704047 (VHH)
VHH: EVQLVESGGGLVQAGGSLRLSCAASGIPFSRYHMGWFRQAPGKEREFVASVSWSGQNTYYADSVKGRFTISRDNAKNTGNLQMNSMKPEDTAVYYCAAGSRYYTDIIPNYYRYWGQGTLVTVSS
B7: KY704060 (VHH)
VHH: EVQLVESGGGLVQSGDSLRLSCAASGRSFSRSTMGWFRQAPEKEREFVAVISWAGTTTYYHDSVKGRFTISRDNAKNTVYLQMNSLKPEDTAVYYCAGGRDARILRNARDYDYWGQGTLVTVSS
B8: KY704059 (VHH)
VHH: EVQLVESGGGLVQAGGSLRLSCTASGRSFSRYTMGWFRQAAGKERVFVAHIAWSGGTRYYADSVKGRFTISRDNAKNTVWLQMNSLKPEDTAVYYCAATSQTGLIVVNTRDYEIWGQGTLVTVSS
B9: KY704049 (VHH)
VHH: EVQLVESGGGVVQTGGSLRLSCAASGRYAMGWFRQVSGKEREFVAFISASGGSTYYADSVKGRFTISRDNAKTTLAYLQMISLKPEDTAVYYCATSGGIFRGLYYDTRNYNYWGQGTLVTVSS
B10: KY704055 (VHH)
VHH: EVQLVESGGGVVQAGGSLRLSCAASGRYGVGWFRQPPGKEREFVSAVSKSGGSTYYEDSVKGRFTISRDGAKNTVYLQMNSLKPEDTAVYYCAADGGGYSAYYYYTHQTEYEYWGQGTLVTVSS
B11: KY704056 (VHH)
VHH: EVQLVESGGGLVQAGGSLRLSCAASGRYVMGWFRQAPGKEREFVAAITRSGATTNYADSVKGRFTISRDSAKITVYLQMDSLKPEDTAVYYCAASGRYYTAAVEGANYDYWGQGTLVTVSS
B12: KY704048 (VHH)
VHH: EVQLVESGGGLVQAGGSLRLSCAASGDTFSTYGMGWFRQAPGKEREIVARITWNRRTYYADSVKGRFTISRDNAKNAAYLEMNSLKPEDTAVYMCAAVRGDNLFHTRPRDYDYWGQGTLVTVSS
B13: KY704045 (VHH)
VHH: EVQLVESGGGLVQAGGSLRLSCAASGRTFSSYIMAWFRQAPGKERDVVATVSWGGETTYYADSVKGRFTISRDNAKNTVYLQMNSLKPEDTAVYYCAASHARGYWHTPFTVADVGSWGQGTLVTVSS
B14: KY704050 (VHH)
VHH: EVQLVESGGGLVQAGGSLRLSCVASGRTLSSYTMGWFRQAPGKEREFLALITWSGGSTHYADSVKGRFTISRDNPKNTAYLQMGSLKPEDTAVYFCAARFRGVIATMARDYDYWGQGTLVTVSS
B15: KY704054 (VHH)
VHH: EVQLVESGGGLVQTGGSLRLSCAASGIYFRLYTMGWYRQAPGNQRELVALITSTRSTHYADSVKGRFTISRDNAKNTLYLQMNSLKPEDTAVYYCNAHNGQGDFWGQGTLVTVSS
B16: KY704052 (VHH)
VHH: EVQLVESGGGLVQAGGSLRLSCAASGRTFSDYSMGWFRQAPGKEREPVAAVSRSGDDLMYENSLKGRFAISRDNAKNTVYLQMNSLKPEDTAVYYCAASTRFITALAANYDYWGQGTLVTVSS
B17: nanobody 8D12 (VHH)
VHH: EVQLVESGGGLVQAGGSLRLSCAASGRYAMGWFRQAPGKEREFVGVISKSGGSTYIADSVKGRFTISRHNAKSTAYLQMNNLRPEDTAVYYCAANGFLGTSGRRVDQYDYWGQGTQVTVSS
notes: From a llama immunised with rhRON; found by conventional screening and by NGS; source: E. coli, crude periplasmic extract; E. coli, purified; not shown: FLAG3, C-terminal, kept
B18: nanobody 5G04 (VHH)
VHH: EVQLVESGGALVQAGDSLRVSCVASGRTFSHYAMGWFRQAPGKQREFVAAISWDGDSTSYANSLKGRFTISRDNAKNTGYLYMNSLIPEDTAVYYCAAGPNFSTLARRYDYWGQGTLVTVSS
notes: as for B17
B19: nanobody 8A09 (VHH)
VHH: EVQLVKSGGGLVQAGGSLRLSCAASGRVAMGWFRQPPGKEREFVAAISASGATKYYADSVKGRFTIFRDNANTTVYLQMNSLKPEDTAVYYCAARLRWDSDYTSGGRYDYWGQGTQVTVSS
notes: as for B17
B20: nanobody 8C09 (VHH)
VHH: EVQLVESGGGLVQAGGSLRLACAASGRISSTYRMGWFRQAPGKEREFVAASRWSGGGVLYTDSVKGRFTISTDNGKNMVYLQMNSLRPEDTAVYYCAGRNYGTTEYGYWGQGTQVTVSS
notes: as for B17
B21: nanobody 2D07 (VHH)
VHH: EVQLVESGGGLVQPGGSLRLSCAASGFTFRAYNMNWLRQAPGKGLEWVSVISGGGGGTLYADSVKGRFTISRDNAKNTLYLQMNSLKPEDTAVYYCAGSDFFADYGRPRHEYRYWGQGTQVTVSS
notes: as for B17
B22: nanobody 2B09 (VHH)
VHH: EVQLVESGGGLVQPGGSLRLSCAASGFSLDNYGIGWFRQAPGKEREGVSYISSTSLTRYYAASVKGRFTISRDNSKNTVYLQMNSLNPEDTAVYYCASTDRWPGIEWYRGEYDNWGQGTQVTVSS
notes: as for B17

Chain of full-length human RON expressed on HEK293T cells (HEK293T-hRON) (Q04912 25-1400): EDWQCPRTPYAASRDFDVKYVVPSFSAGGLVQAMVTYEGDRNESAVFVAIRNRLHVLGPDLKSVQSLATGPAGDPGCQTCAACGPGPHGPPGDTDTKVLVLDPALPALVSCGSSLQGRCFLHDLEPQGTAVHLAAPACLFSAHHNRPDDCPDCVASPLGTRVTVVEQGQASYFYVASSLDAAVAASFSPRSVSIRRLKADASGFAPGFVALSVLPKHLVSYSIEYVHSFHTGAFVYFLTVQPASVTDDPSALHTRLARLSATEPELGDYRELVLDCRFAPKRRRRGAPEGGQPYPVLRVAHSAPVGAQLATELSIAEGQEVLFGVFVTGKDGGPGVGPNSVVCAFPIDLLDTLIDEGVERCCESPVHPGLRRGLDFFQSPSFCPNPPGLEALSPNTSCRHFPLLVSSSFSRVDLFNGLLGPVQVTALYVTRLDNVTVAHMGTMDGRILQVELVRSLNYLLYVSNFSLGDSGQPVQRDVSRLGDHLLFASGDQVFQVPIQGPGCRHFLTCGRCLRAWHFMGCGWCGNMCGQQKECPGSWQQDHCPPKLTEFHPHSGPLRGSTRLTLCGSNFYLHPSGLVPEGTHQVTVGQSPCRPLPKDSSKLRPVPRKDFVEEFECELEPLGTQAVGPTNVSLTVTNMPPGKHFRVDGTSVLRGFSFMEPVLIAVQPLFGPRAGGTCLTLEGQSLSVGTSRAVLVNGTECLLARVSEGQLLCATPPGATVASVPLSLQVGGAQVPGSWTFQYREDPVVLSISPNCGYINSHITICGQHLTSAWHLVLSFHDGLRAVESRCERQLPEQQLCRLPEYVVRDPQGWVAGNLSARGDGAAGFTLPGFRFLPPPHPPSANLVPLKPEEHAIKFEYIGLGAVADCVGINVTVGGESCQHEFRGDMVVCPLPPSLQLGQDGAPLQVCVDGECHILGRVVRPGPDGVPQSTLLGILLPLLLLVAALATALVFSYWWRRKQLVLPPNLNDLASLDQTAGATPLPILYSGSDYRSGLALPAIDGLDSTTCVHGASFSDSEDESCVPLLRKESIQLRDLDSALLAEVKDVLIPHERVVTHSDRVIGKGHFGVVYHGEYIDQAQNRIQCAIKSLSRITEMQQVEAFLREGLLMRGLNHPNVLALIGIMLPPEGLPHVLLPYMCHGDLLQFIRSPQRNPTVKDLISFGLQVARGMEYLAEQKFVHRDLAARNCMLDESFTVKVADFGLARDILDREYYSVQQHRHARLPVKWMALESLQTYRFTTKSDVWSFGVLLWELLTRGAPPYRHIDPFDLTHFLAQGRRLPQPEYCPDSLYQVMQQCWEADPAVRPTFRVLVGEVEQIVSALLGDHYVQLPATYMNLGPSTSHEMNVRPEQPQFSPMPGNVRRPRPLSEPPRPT
T1 sequence (Q04912 25-957): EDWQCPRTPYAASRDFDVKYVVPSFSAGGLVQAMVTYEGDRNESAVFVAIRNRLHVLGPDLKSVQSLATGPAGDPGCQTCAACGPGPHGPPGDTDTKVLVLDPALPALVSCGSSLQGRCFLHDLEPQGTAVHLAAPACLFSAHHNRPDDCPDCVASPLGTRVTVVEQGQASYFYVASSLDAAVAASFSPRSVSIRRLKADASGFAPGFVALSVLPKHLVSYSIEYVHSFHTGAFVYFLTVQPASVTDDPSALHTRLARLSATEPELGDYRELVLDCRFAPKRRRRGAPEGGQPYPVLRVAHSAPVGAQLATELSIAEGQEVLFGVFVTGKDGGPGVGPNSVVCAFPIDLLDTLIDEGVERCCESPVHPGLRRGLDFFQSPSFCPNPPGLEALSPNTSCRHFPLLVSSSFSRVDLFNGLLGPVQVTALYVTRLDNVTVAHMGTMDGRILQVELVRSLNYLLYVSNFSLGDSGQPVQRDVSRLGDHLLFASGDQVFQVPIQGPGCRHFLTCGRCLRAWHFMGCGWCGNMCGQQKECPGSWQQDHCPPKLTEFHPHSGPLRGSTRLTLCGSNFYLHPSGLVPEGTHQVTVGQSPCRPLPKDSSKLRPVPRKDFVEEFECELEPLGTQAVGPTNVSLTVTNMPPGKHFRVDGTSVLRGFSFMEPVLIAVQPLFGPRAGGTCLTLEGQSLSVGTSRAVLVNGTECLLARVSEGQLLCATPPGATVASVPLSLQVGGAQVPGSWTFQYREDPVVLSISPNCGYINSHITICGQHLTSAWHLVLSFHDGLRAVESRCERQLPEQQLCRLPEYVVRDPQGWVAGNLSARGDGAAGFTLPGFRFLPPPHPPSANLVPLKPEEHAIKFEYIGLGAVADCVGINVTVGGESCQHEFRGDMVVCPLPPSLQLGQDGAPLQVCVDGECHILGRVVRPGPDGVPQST

The first test has as its target T1, Recombinant extracellular domain of human RON (rhRON) (human, UniProt Q04912).
Assay: not given
Conditions: not given
Regarding B1, the binding result is “binds”.

Regarding B2, the binding result is recorded as “binds”.

As for B3, the binding result was “binds”.

On to B4, for which the binding result is listed as “binds”.

In the case of B5, the binding result is “binds”.

Regarding B6, the binding result is given as “binds”.

As for B7, the binding result is given as “binds”.

Take B8: the binding result is “binds”.

For the molecule B9, the binding result is given as “binds”.

With B10, the binding result is on record as “binds”.

B11: the binding result is “binds”.

On to B12, for which the binding result was “binds”.

Regarding B13, the binding result is given as “binds”.

Regarding B14, the binding result is “binds”.

For B15, the binding result is given as “binds”.

In the case of B16, the binding result is given as “binds”.

A further test has as its target full-length human RON expressed on HEK293T cells (HEK293T-hRON) (Homo sapiens, UniProt Q04912).
Assay: not given
Conditions: not given
Take B1: the binding result is reported as “binds”.

As to B2, the binding result is recorded as “binds”.

For the molecule B3, the binding result was “binds”.

In the case of B4, the binding result is on record as “binds”.

Turning to B5, the binding result was “binds”.

In the case of B6, the binding result was “binds”.

For B7, the binding result was “binds”.

For B8, the binding result was “binds”.

For B9, the binding result is reported as “binds”.

For the molecule B10, the binding result is reported as “binds”.

For the molecule B11, the binding result is “binds”.

For B12, the binding result is reported as “binds”.

Consider B13, for which the binding result is listed as “binds”.

Take B14: the binding result is on record as “binds”.

Regarding B15, the binding result is on record as “binds”.

For the molecule B16, the binding result is reported as “binds”.

The target in a further test is T2, RON endogenously expressed on T-47D human breast cancer cells (Homo sapiens (T-47D cell line), UniProt Q04912). The test can be described thus: cell-based or functional assay.
T2 sequence (Q04912 25-1400): as the sequence (Q04912 25-1400) above
Conditions: not given
For the molecule B17, the “IC50 (M) inhibition of ERK phosphorylation induced by 1 nM MSP through RON on T-47D cells; purified nanobody, HTRF phospho-ERK” value (“IC50 (M) inhibition” below) worked out at 1.5e-08 M and the “maximum inhibition (efficacy) of MSP-induced ERK phosphorylation in T-47D cells” value (“maximum inhibition (efficacy)” for short) is 100%.

B18: the “IC50 (M) inhibition” value is 4.9e-09 M and the “maximum inhibition (efficacy)” value was 100%.

As for B19, the “IC50 (M) inhibition” value was 4.9e-09 M and the “maximum inhibition (efficacy)” value stood at 100%.

Consider B20, for which the “IC50 (M) inhibition” value is 3.3e-08 M and the “maximum inhibition (efficacy)” value was determined as 100%.

Regarding B21, the “IC50 (M) inhibition” value amounted to 1.8e-08 M and the “maximum inhibition (efficacy)” value was found to be 100%.

B22: the “IC50 (M) inhibition” value was 9.6e-08 M and the “maximum inhibition (efficacy)” value is 96%.

The target of the next test is T1, Recombinant extracellular domain of …. The test can be described thus: SPR; ProteOn; rhRON immobilised on GLC chip; 1/10 diluted crude periplasmic extracts injected 2 min at 45 µl/min; Langmuir model, off-rate only. Conditions: one partner purified. A general note: SPR reads the build-up and loss of mass on a sensor chip optically.
B17: the koff (commonly a measure of how fast the partners let go of each other) was determined as 0.00051 s⁻¹.

B18: the koff stood at 0.00029 s⁻¹.

On to B19, for which the koff was determined as 0.00062 s⁻¹.

Regarding B20, the koff stood at 0.0023 s⁻¹.

Turning to B21, the koff was found to be 0.005 s⁻¹.

Regarding B22, the koff stood at 0.0018 s⁻¹.

Another test addresses T2, RON endogenously expressed on T-47D …. The test can be described thus: flow cytometry on cells; dilution series of purified nanobodies starting at 500 nM on T-47D cells endogenously expressing RON; anti-FLAG then anti-mouse APC. Conditions: one partner purified. In general terms: A flow cytometer gives signals particle by particle.
With B17, the EC50 (as a rule, the midpoint of the concentration-response curve) was determined as 0.061 nM.

In turn, B18 yielded an EC50 of 0.33 nM.

In turn, B19 had an EC50 of 0.093 nM.

B20 gave an EC50 of 170 nM.

B21 returned an EC50 of 5 nM.

Regarding B22, the EC50 was found to be 1.3 nM.

The next test addresses T1, Recombinant extracellular domain of …. The test can be described thus: ELISA; ligand competition: rhRON (1 µg/ml) immobilised directly; dilution series of purified nanobodies starting at 1 µM added together with 2 nM biotinylated MSP; MSP detected by extravidin peroxidase. Conditions: both partners purified. For orientation: An ELISA detects its analyte on a solid surface through an enzyme-linked reagent.
Regarding B17, the IC50 (usually the concentration that inhibits the measured activity by half) was found to be 11 nM and the “maximum inhibition of MSP binding” value was 98%.

On to B19, for which the IC50 worked out at 16 nM and the “maximum inhibition of MSP binding” value came to 98%.

Regarding B20, the IC50 was determined as 47 nM and the “maximum inhibition of MSP binding” value was found to be 90%.

Source of the values: publication PMC5385344, “Large Diversity of Functional Nanobodies from a Camelid Immune Library Revealed by an Alternative Analysis of Next-Generation Sequencing Data” (Frontiers in Immunology, 2017).
